Three molecules from publication PMC7996396, “Affinity and Structural Analysis of the U1A RNA Recognition Motif with Engineered Methionines to Improve Experimental Phasing” can be followed below.

Data set [1] concerns the target TBP6.9 (Homo sapiens (lab-evolved)) (UniProt P09012). Briefly: ITC. To be noted: ITC: 50 mM Na-HEPES pH 7.5, 50 mM NaCl, 50 mM KCl, 2 mM MgCl2, 5 mM beta-mercaptoethanol, 20 C; protein in syringe, RNA in cell.
Data set [2] concerns the target TBP6.9(F34M/F37M/F77M) 7Se-Met (Homo sapiens (lab-evolved)) (UniProt P09012). Description: ITC. To be noted: ITC: 50 mM Na-HEPES pH 7.5, 50 mM NaCl, 50 mM KCl, 2 mM MgCl2, 5 mM beta-mercaptoethanol, 20 C; protein in syringe, RNA in cell.
Data set [3] deals with dmU1A (U1A RRM1 Y31H/Q36R) (Homo sapiens, UniProt P09012 1-98, Y31H;Q36R). Description: ITC; ITC: 50 mM Na-HEPES pH 7.5, 50 mM NaCl, 50 mM KCl, 2 mM MgCl2, 5 mM beta-mercaptoethanol, 20 C; protein in syringe, RNA in cell. To be noted: protein: recombinant; tags: N-terminal 6xHis removed with TEV protease; hairpin, loop closed by C65-G76.
Sequence of dmU1A (U1A RRM1 Y31H/Q36R) (P09012 1-98 Y31H/Q36R): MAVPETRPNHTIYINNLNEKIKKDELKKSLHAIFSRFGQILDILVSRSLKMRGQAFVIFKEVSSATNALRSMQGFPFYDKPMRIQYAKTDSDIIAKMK
In a further data set the target is dmU1A(F37M/F77M) 7Se-Met (Homo sapiens, UniProt P09012 1-98, Y31H;Q36R;F37M;F77M). Description: ITC; Se-Met protein; ITC: 50 mM Na-HEPES pH 7.5, 50 mM NaCl, 50 mM KCl, 2 mM MgCl2, 5 mM beta-mercaptoethanol, 20 C; protein in syringe, RNA in cell. To be noted: protein: recombinant; tags: N-terminal 6xHis removed with TEV protease; hairpin, loop closed by C65-G76.
Sequence of dmU1A(F37M/F77M) 7Se-Met (P09012 1-98 Y31H/Q36R/F37M/F77M): as the sequence (P09012 1-98 Y31H/Q36R) above, with F37M, F77M counted along it

Sequence of TBP6.9(F34M/F37M/F77M) 7Se-Met (Homo sapiens (lab-evolved)) (P09012 whole entry, stated change not applied): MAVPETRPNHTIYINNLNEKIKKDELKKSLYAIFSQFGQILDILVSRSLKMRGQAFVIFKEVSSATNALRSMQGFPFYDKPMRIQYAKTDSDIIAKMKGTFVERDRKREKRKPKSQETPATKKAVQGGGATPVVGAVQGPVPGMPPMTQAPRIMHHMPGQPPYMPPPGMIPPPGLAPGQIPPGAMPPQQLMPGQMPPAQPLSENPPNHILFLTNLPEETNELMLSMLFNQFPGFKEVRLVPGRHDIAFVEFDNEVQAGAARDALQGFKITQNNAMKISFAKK
Sequence of TBP6.9 (Homo sapiens (lab-evolved)) (P09012 whole entry, stated change not applied): as above

On to “GGAGAUCUGAGCCUGGGAGCUCUCUCC [HIV-1 TAR 27-mer]”, for which the Kd came to 8.5 nM in data set [1] and 13.5 nM in data set [2].
For “GCAGAUCUGAGCCCGAAAGGAGCUCUCUGC [GNRA-TAR 30-mer]”, the Kd in data set [1] amounted to 87.8 nM; in data set [2], 69.8 nM.

B1: hpII 24-mer (U1 snRNA hairpin II) (structured_RNA)
RNA: CGAAUCCAUUGCACUCCGGAUUCG
As to B1, the Kd came to 152 ± 7 nM in data set [3] and 59.7 ± 11.4 nM in the data set with dmU1A(F37M/F77M) 7Se-Met.
